Experimental data reported in article PMC3135484 (Molecular Biology of the Cell, 2011).

T1: His-tagged Vam7 (1-316) (S. cerevisiae, UniProt P32912 1-316)
T1 sequence: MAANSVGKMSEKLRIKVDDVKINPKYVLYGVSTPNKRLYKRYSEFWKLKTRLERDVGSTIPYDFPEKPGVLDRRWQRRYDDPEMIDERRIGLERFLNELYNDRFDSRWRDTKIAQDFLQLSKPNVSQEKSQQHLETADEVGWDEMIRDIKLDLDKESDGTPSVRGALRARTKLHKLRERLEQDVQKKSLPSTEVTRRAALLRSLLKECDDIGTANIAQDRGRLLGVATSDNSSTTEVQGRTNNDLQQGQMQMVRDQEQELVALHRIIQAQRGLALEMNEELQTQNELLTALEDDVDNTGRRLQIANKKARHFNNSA

T2: Vps16 (individual HOPS subunit, TAP-purified) (yeast (S. cerevisiae), UniProt Q03308 1-798)
T2 sequence: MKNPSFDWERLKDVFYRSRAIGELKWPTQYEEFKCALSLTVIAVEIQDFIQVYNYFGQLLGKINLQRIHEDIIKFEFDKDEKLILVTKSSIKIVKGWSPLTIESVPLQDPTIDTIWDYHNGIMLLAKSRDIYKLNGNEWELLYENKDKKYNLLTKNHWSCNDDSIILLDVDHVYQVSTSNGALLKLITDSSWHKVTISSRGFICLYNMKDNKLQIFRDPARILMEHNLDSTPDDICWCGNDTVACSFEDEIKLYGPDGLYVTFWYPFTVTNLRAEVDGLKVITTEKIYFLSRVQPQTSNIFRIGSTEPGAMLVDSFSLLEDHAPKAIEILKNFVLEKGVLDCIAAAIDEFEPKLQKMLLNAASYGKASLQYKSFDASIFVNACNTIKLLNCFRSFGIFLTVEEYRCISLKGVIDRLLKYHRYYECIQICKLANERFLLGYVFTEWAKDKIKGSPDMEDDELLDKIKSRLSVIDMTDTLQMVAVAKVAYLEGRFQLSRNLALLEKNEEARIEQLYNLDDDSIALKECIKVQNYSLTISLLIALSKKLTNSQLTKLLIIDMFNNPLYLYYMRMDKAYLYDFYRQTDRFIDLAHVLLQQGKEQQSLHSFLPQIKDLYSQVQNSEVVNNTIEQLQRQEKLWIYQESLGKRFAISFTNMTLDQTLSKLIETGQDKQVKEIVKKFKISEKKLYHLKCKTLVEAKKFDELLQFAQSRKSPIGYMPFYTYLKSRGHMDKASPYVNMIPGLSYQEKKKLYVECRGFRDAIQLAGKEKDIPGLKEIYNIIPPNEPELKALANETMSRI

B1: GST-tagged Vam3 (Vam3 1-260, ΔTMD) (domain or fragment)
chain: MSFFDIEAQSSKGNSQQEPQFSTNQKTKELSNLIETFAEQSRVLEKECTKIGSKRDSKELRYKIETELIPNCTSVRDKIESNILIHQNGKLSADFKNLKTKYQSLQQSYNQRKSLFPLKTPISPGTSKERKDIHPRTEAVRQDPESSYISIKVNEQSPLLHNEGQHQLQLQEEQEQQQQGLSQEELDFQTIIHQERSQQIGRIHTAVQEVNAIFHQLGSLVKEQGEQVTTIDENISHLHDNMQNANKQLTRADQHQRDRN
B2: GST-tagged Vam7 (1-316) (natural protein)
chain: T1 sequence
B3: GST-tagged Vam7 PX domain (1-129) (domain or fragment)
chain: MAANSVGKMSEKLRIKVDDVKINPKYVLYGVSTPNKRLYKRYSEFWKLKTRLERDVGSTIPYDFPEKPGVLDRRWQRRYDDPEMIDERRIGLERFLNELYNDRFDSRWRDTKIAQDFLQLSKPNVSQEK
B4: SNARE complex assembled on GST-Vam7 SD with Vam3, Vti1 and Ykt6 (complex)
chain 1: PSTEVTRRAALLRSLLKECDDIGTANIAQDRGRLLGVATSDNSSTTEVQGRTNNDLQQGQMQMVRDQEQELVALHRIIQAQRGLALEMNEELQTQNELLTALEDDVDNTGRRLQIANKKARHFNNSA
chain 2: MSFFDIEAQSSKGNSQQEPQFSTNQKTKELSNLIETFAEQSRVLEKECTKIGSKRDSKELRYKIETELIPNCTSVRDKIESNILIHQNGKLSADFKNLKTKYQSLQQSYNQRKSLFPLKTPISPGTSKERKDIHPRTEAVRQDPESSYISIKVNEQSPLLHNEGQHQLQLQEEQEQQQQGLSQEELDFQTIIHQERSQQIGRIHTAVQEVNAIFHQLGSLVKEQGEQVTTIDENISHLHDNMQNANKQLTRADQHQRDRNKCGK
chain 3: MSSLLISYESDFKTTLEQAKASLAEAPSQPLSQRNTTLKHVEQQQDELFDLLDQMDVEVNNSIGDASERATYKAKLREWKKTIQSDIKRPLQSLVDSGDRDRLFGDLNASNIDDDQRQQLLSNHAILQKSGDRLKDASRIANETEGIGSQIMMDLRSQRETLENARQTLFQADSYVDKSIKTLKTMTRR
chain 4: MRIYYIGVFRSGGEKALELSEVKDLSQFGFFERSSVGQFMTFFAETVASRTGAGQRQSIEEGNYIGHVYARSEGICGVLITDKEYPVRPAYTLLNKILDEYLVAHPKEEWADVTETNDALKMKQLDTYISKYQDPSQADAIMKVQQELDETKIVLHKTIENVLQRGEKLDNLVDKSESLTASSKMFYKQAKKSNSCCIIM
B5: Q-SNARE complex assembled on GST-Vam7 SD with Vam3 and Vti1 (complex)
chain 1: B4 chain 1
chain 2: B4 chain 2
chain 3: B4 chain 3
B6: minimal SNARE complex assembled on GST-Vam7 SD with Vam3ΔN, Vti1 and Ykt6 (complex)
chain 1: B4 chain 1
chain 2: ESSYISIKVNEQSPLLHNEGQHQLQLQEEQEQQQQGLSQEELDFQTIIHQERSQQIGRIHTAVQEVNAIFHQLGSLVKEQGEQVTTIDENISHLHDNMQNANKQLTRADQHQRDRNKCGK
chain 3: B4 chain 3
chain 4: B4 chain 4
B7: His-tagged Vti1 (1-189, ΔTMD) (domain or fragment)
chain: B4 chain 3
B8: His-tagged Ykt6 (1-200) (natural protein)
chain: B4 chain 4

Columns and labels:
Assay in all cases: pull-down
His-tagged Vam7 (1-316) = target: T1, His-tagged Vam7 (1-316)
[1] = target: T2, Vps16 (individual HOPS subunit, …)
[2] = target: HOPS (homotypic fusion and protein sorting) complex (yeast (S. cerevisiae), UniProt P38959;Q07468;P20795;P12868;Q03308;P27801)
[3] = target: B1

Binder: B1
- binding result (His-tagged Vam7 (1-316)): binds

Binder: B2
- binding result [1]: binds
- binding result [2]: binds

Binder: B3
- binding result [2]: binds

Binder: B4
- binding result [2]: binds

Binder: B5
- binding result [2]: binds

Binder: B6
- binding result [2]: binds

Binder: B7
- binding result [3]: binds

Binder: B8
- binding result [3]: binds
